The values below come from publication PMC9124243 (Cell chemical biology, 2021).

B1: Mycobacterium tuberculosis DnaK T175A (catalytically dead mutant), full-length (natural protein)
chain: not shown

The data set “native gel or EMSA” deals with the molecule itself. Put plainly: native gel or EMSA.
Data set [1] addresses B1. Put plainly: native gel or EMSA. In general terms: A gel shift assay detects complexes by their altered migration in electrophoresis.

Turning to B1, the binding result in “native gel or EMSA” is reported as “binds”.

B2: Mycobacterium tuberculosis GrpE (natural protein)
chain: MTDGNQKPDGNSGEQVTVTDKRRIDPETGEVRHVPPGDMPGGTAAADAAHTEDKVAELTADLQRVQADFANYRKRALRDQQAAADRAKASVVSQLLGVLDDLERARKHGDLESGPLKSVADKLDSALTGLGLVAFGAEGEDFDPVLHEAVQHEGDGGQGSKPVIGTVMRQGYQLGEQVLRHALVGVVDTVVVDAAELESVDDGTAVADTAENDQADQGNSADTSGEQAESEPSGS
Turning to B2, the binding result in data set [1] is “binds”.
